Target: SARS-CoV spike on S-pseudotyped MLV virions (SARS-CoV)
Assay: cell-based or functional assay

## COVA1-16 (antibody)
  percent neutralization of pseudovirus at 200 µg, antibody alone: 28%

From patent publication US20240376180A1
